Results on 140 substances are retold here after the supplement of paper PMC12042874.

The data set is described as follows: amyloid nucleation score (Sup35N fusion, yeast selection) (log enrichment); library NNK2; higher = more nucleation; inactive = no reads after selection. In outline:
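Nucleation score is defined as the DiMSum log enrichment of output over input reads, with centring on the mode score of non-aggregating sequences. A minimum of 100 input reads was required for each sequence. Reads came from Illumina sequencing of plasmid inserts from psi-negative yeast expressing Sup35N fused to peptides of 20 random codons, induced with 100 μM copper sulfate for 24 hours and grown 7 days at 30°C on medium lacking adenine and uracil.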

± gives the uncertainty stated by the source.

The substance RIHYYVVLCLGSRRSTFGLR displayed an amyloid nucleation score of -0.171 ± 0.28.
The substance YFKYNVYIT registered an amyloid nucleation score of 1.3 ± 0.23.
For MVSVKSCYYVSVSVLSRFHF, the amyloid nucleation score is 0.065 ± 0.36.
YFKRSGLSICRTGKLALGWH: the amyloid nucleation score result was “inactive”.
For AVEQWQ the value was 1.58 ± 0.37.
PVLDGHCSWGGLSTAEETDR had an amyloid nucleation score of 0.29 ± 0.29.
The substance DRSAIMVRCNQIFHISPIGF came in with an amyloid nucleation score of 6.31 ± 0.064.
In turn, IPYLDYMTMH had an amyloid nucleation score of 0.082 ± 0.22.
RMKVDTLIWTPDWMEFVSII registered an amyloid nucleation score of -0.824 ± 1.1.
Take TVWRARLGSPCGFLCVDRSW: the amyloid nucleation score was 0.414 ± 0.53.
STNEWF had an amyloid nucleation score of -1.06 ± 0.62.
To YTVRKNNLVVQESMFLSKCW belongs 0.855 ± 0.12; to TPTWESNQVL, 0.502 ± 0.65; to MRCKRYECSGDSWWGYSFAK, 0.131 ± 0.27.
SCLLSL yielded an amyloid nucleation score of 0.506 ± 0.45.
Substance KHCMCYLLWNI came in with an amyloid nucleation score of -0.422 ± 1.1.
For KRGKPK the value was “inactive”.
As for PGCHWISASCGDVLDKGNTG, the amyloid nucleation score is 0.501 ± 0.62.
Turning to NPYKLTLPLTSLLLYSIPRA, the amyloid nucleation score is -0.127 ± 1.1.
The substance SAGFCFNNCFVFASGDYVNR returned an amyloid nucleation score of 7.493 ± 0.047.
As to TFGESSIVNNPYFLHESGHS, the amyloid nucleation score was 0.813 ± 0.48.
Take FSLYN: the amyloid nucleation score was -1.64 ± 0.75.
As for AEQRWTVRIVLSYYVSKINI, the amyloid nucleation score was found to be 0.316 ± 0.65.
Turning to RSSWPTLKQGCSKSRQIWRA, the amyloid nucleation score is 0.182 ± 0.3.
For MVHLRGIDVMSILDSYCESG, the amyloid nucleation score is 0.544 ± 0.52.
NTLVSVYEYFSMWGRSCRWS returned an amyloid nucleation score of 0.141 ± 0.61.
To ANLFVCMDDM belongs -0.051 ± 0.23; to KITCVITNALCSLTERADR, 9.394 ± 0.069.
SSWSLCIYLINRKKAEYVVI showed an amyloid nucleation score of 0.462 ± 0.53.
To SGLIY belongs “inactive”.
For the substance TMFLYSNAEDFF, the amyloid nucleation score entry is “inactive”.
The substance ANWQWPYCCCCLEGIGRNLF came in with an amyloid nucleation score of 4.94 ± 0.073.
GHCLSYMCVGLA showed an amyloid nucleation score of 4.304 ± 0.039.
In the case of CFVQLCACRYTIRNWGFRWL, the amyloid nucleation score result was “inactive”.
As for PKVVPMISRIAVPL, the amyloid nucleation score was -0.788 ± 0.76.
For the substance CRVRYTGGY, the amyloid nucleation score was 0.523 ± 0.35.
Substance LKTQWQSPWVQMV returned an amyloid nucleation score of -0.09 ± 0.48.
KRNVRFVGMITKRMSRSRPI showed an amyloid nucleation score of 0.511 ± 0.43.
The substance VLVKSLMRENVPCPPLGTLS came in with an amyloid nucleation score of 0.942 ± 0.36.
The substance DVAYRVVDKRIQRVAKCMYM yielded an amyloid nucleation score of -0.194 ± 0.6.
As for SSFVIPSKR, the amyloid nucleation score was -1.31 ± 0.78.
On to MRYRIICNFCHDVRKESLLK, for which the amyloid nucleation score is -0.246 ± 0.8.
QPPMRVYSLVMLCDAVSSKD had an amyloid nucleation score of 0.339 ± 0.56.
PMFVSLVKFTYWSCTVFLGA: the amyloid nucleation score is -0.582 ± 0.38.
As to RLCTVRSP, the amyloid nucleation score worked out at 1.55 ± 0.14.
For AKVWDCGSPKVQYIVARQVV the value was 0.042 ± 0.46.
EKVSFASFMS came in with an amyloid nucleation score of -1.31 ± 0.78.
QSCWIFSGHSE came in with an amyloid nucleation score of -1.03 ± 0.44.
In turn, FVNLRFSKVGWYDLF yielded an amyloid nucleation score of -0.255 ± 0.65.
Substance LNICDLRPLV registered an amyloid nucleation score of -0.93 ± 0.76.
To RYSFSLMGFDSKGNKVGIMS belongs 3.65 ± 0.06; to SFSHGSDAIGNVYCDNIVYK, “inactive”.
For IRVICRIWCLFLSL the value was 0.087 ± 0.55; for WMLIWYGPRLVYIPDLITLP, “inactive”; for FEVYKANDIEIYYAVCEMGV, -1.34 ± 0.26.
For the substance RPSFKKYFAGSSDTNGSGVC, the amyloid nucleation score was -0.513 ± 0.64.
For the substance SYDVRVAKINSPLGG, the amyloid nucleation score is -0.397 ± 0.79.
YRYKRLSRRV displayed an amyloid nucleation score of -1.09 ± 0.78.
To DTMKFFSSLSMNGENVGLGY belongs “inactive”; to DTSIW, 0.114 ± 0.29; to LYWNVAGLGPQYKSLCLGFR, -0.753 ± 0.56.
In turn, PACTLESYRSNNFDGLFMTT displayed an amyloid nucleation score of -0.609 ± 0.76.
For SNFCFSTR the value was 0.328 ± 0.32; for VCVQDRLRC, 0.518 ± 0.5; for CNTRRLISMRI, -0.234 ± 0.65.
As to TETTVFILLFWLLVILGRVH, the amyloid nucleation score result was “inactive”.
On to PRMSTMTTKCGKLKNGKYRR, for which the amyloid nucleation score was determined as 0.549 ± 0.51.
With HPGMVVIAE, the amyloid nucleation score came to 3.97 ± 0.075.
In the case of KLIVMGTNPGRVGNGWKRKS, the amyloid nucleation score is 0.53 ± 0.3.
For CCCWRECDNKRSRTLHCEAW the value was 0.557 ± 0.66.
On to RNSPVSLDVVSI, for which the amyloid nucleation score is 0.046 ± 0.49.
Turning to DVQHFIWCCNATVTYPLLVL, the amyloid nucleation score was determined as 1.27 ± 0.22.
Substance GLRYIS returned an amyloid nucleation score of -0.102 ± 0.5.
As for ITISLLLGHYDCCCVTLLQE, the amyloid nucleation score came to 7.263 ± 0.027.
In turn, MLFSTATYSSGRRFDFVEIA had an amyloid nucleation score of 0.422 ± 0.65.
In turn, GACVAKATF came in with an amyloid nucleation score of 0.616 ± 0.19.
PPRYARFKSDLHSLHAVFGN: the amyloid nucleation score worked out at 5.57 ± 0.061.
To CYFCWDFLIGCNFTHNAQ belongs 7.237 ± 0.063.
For CHNNFVYRGNAPRRHLEQGV, the amyloid nucleation score worked out at 0.062 ± 0.77.
In the case of PYWYYVFCS, the amyloid nucleation score is -0.689 ± 0.49.
To YRCLYGRKYVFRIEPIGIVH belongs -0.676 ± 0.35; to FFVPYDSYTYHLILFLKQLV, -0.535 ± 0.53; to YIFLIMCRWYSATLIRKTSC, -0.584 ± 0.76.
As to DDTLVVLPTRYLTPIWEMH, the amyloid nucleation score was found to be 2.4 ± 0.18.
To GQNRKLLDLIYRMLGSLLWH belongs 0.309 ± 0.8.
To YGILCAKLTAVCL belongs 1.44 ± 0.36.
To IDERATSEDSSGRKDSVTFL belongs -0.306 ± 0.28; to LMYCI, -0.211 ± 0.76.
On to PLRVRNNGGTVDKFLLRVFE, for which the amyloid nucleation score came to 0.489 ± 0.4.
WYTPRLRMLHLAEKGVRVVV showed an amyloid nucleation score of 4.31 ± 0.089.
As for NVRIVYRPAGPFG, the amyloid nucleation score was -0.347 ± 0.39.
To GAELPKYESRLPFLSAGLRQ belongs -0.048 ± 0.53; to YMASWVSSAGSFV, 1.05 ± 0.29; to VVAKAGRSKFSGCSRATAGG, 0.609 ± 0.41.
With NTANKFSLFKTGMVWVSFFT, the amyloid nucleation score worked out at 2.88 ± 0.099.
In the case of RNPVTSIVQVHDKMGRRSKS, the amyloid nucleation score entry was “inactive”.
For EEREFSAASPEAMELR the value was “inactive”; for TFFNNWMALKYRNYQFIMSG, “inactive”; for MQSINVNNVKTSTRPFFVNR, “inactive”.
Substance WCLLAIFSYCNDPLVLIARR gave an amyloid nucleation score of 2.26 ± 0.12.
In the case of MTIDCFTFRDQGVYGTLMLK, the amyloid nucleation score is 3.33 ± 0.043.
For RRTIGASTEKYRLNNFLHVC the value was -0.661 ± 1.1; for SFYRCGLNYCNGTS, 5.94 ± 0.06.
For WSRFSCRT the value was 1.24 ± 0.2.
To SREGLCCNIVYA belongs -0.45 ± 0.37.
As for EETVLIFLCYMAGRDLYKVN, the amyloid nucleation score was found to be 3.21 ± 0.096.
Turning to MQTICSN, the amyloid nucleation score was -1.13 ± 1.
Regarding CDYEYGCQNKRGFRMLLKSW, the amyloid nucleation score result is “inactive”.
GYNLKILESIMEGSAGLMCT showed an amyloid nucleation score of -0.779 ± 0.33.
Regarding THNLAEGQGKDCVQSLDRMG, the amyloid nucleation score was 0.22 ± 0.38.
For PWRRISMVVSWQYIEFIKYL, the amyloid nucleation score is -0.832 ± 0.78.
To TPSRFWPMLFSVNLWLRGWL belongs 0.017 ± 0.62; to DSWLFGDINRCFWLVKCYHR, 2.69 ± 0.075; to ISDLFYANLLVIASNMVT, -1.46 ± 0.78.
ARDNQMARDI displayed an amyloid nucleation score of 2.83 ± 0.15.
RNLYGHISVIFCGDNFDGSC: the amyloid nucleation score is 7.15 ± 0.077.
To YLRCMRSLYSMNLCDAFNAA belongs “inactive”.
The substance VSFKTSGKLCTAWFVWGLF gave an amyloid nucleation score of -0.108 ± 0.34.
Substance NQYLSMRTAHSGEVYQPLVF registered an amyloid nucleation score of 0.859 ± 0.8.
RIENFVWC displayed an amyloid nucleation score of -0.688 ± 0.63.
On to CCFRLLGYAGN, for which the amyloid nucleation score is -0.961 ± 0.5.
On to SGLFFTHTFRKLVYRLRSTK, for which the amyloid nucleation score is -1.08 ± 1.1.
As for VDREKKEKTLVDGTQMVTCL, the amyloid nucleation score turned out to be 1.12 ± 0.32.
Turning to TTTCLMLLRVNFNTALLIRN, the amyloid nucleation score is -1.41 ± 0.49.
CRSFAFTLSNMYLMM gave an amyloid nucleation score of 6.52 ± 0.082.
The substance KSLDFR showed an amyloid nucleation score of 0.493 ± 0.46.
The substance MLDMPDYCNYYL had an amyloid nucleation score of 1.27 ± 0.14.
As to VFACLNVLSLMNEDFFVMSD, the amyloid nucleation score was -0.708 ± 0.54.
To FNCEGLVNS belongs -1.25 ± 0.64; to FSFLKLIADPATLVIGTDSW, -0.492 ± 0.3; to TMSQYLGNRCTTNGYSFGVS, -0.272 ± 1.1.
Take VKVGEISCFNFKEYTFLLTD: the amyloid nucleation score result was “inactive”.
As to FRLSHFILVSHYLNNYEDSF, the amyloid nucleation score result was “inactive”.
For IMCLKFLNPTHFGCVGVCML the value was -1.22 ± 0.41; for GTWMWETFCRLTFVFGIRRG, -0.264 ± 0.54.
For EKICRWHTDRGAFN the value was “inactive”.
For DFSWNGGNFTFVFSKCGL the value was 2 ± 0.22.
In turn, MSTIEYSDGVEGRHILCLIA showed an amyloid nucleation score of 1.2 ± 0.35.
WCSKKPDEFLTINAFRYWED: the amyloid nucleation score is -0.736 ± 0.34.
Regarding CTSDVGGSQERVGSIQANSN, the amyloid nucleation score came out at 2.48 ± 0.2.
